Results on eleven molecules are retold here after US20250188189A1 (published 2025).

Sequences and labels used below:
T1: plasma-derived human activated protein C (APC) (UniProt P04070 43-461)
T1 chain: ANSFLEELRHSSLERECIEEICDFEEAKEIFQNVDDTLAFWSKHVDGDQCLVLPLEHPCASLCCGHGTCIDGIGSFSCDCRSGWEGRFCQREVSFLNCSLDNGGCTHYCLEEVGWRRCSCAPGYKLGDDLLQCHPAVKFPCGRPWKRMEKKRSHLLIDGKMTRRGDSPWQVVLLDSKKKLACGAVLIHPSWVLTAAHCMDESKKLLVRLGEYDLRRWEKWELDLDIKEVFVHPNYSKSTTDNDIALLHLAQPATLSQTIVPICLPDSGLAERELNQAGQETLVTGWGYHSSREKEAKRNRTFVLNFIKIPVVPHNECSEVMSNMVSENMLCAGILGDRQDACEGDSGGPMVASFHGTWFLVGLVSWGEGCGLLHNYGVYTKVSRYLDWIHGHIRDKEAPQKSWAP

B1: TPP-24745 (antibody, V domains shown)
VH: EVQLVESGGGLVQPGGSLRLSCAASGFTFSNYYINWVRQAPGKGLEWVSYISSSSSTIYYADSVKGRFTISRDDSKNSLYLQMNSLKTEDTAVYYCAREGDYFDYWGQGTLVTVSS
B2: TPP-24737 (antibody, V domains shown)
VH: B1 VH with I34M
B3: TPP-24777 (antibody, V domains shown)
VH: B1 VH with N31S, I34L
B4: TPP-24740 (antibody, V domains shown)
VH: EVQLVESGGGLVQPGGSLRLSCAASGFTFSNYYMSWVRQAPGKGLEWVGDIRLKSNNYEKHYAESVKGRFTISRDDSKNSLYLQMNSLKTEDTAVYYCAREGDYFDYWGQGTLVTVSS
B5: TPP-24727 (antibody, V domains shown)
VH: B4 VH with M34L, S35N
VL: DIVLTQSPASLAVSPGQRATITCKASESVDSFGATFMHWYQQKPGQPPKLLIYLASNLESGVPARFSGSGSGTDFTLTINPVEADDTANYYCQQNNEDPYTFGQGTKLEIKR
B6: TPP-24744 (antibody, V domains shown)
VH: B4 VH with M34I, S35N
B7: TPP-24739 (antibody, V domains shown)
VH: EVQLVESGGGLVQPGGSLRLSCAASGFTFSNYYMNWVRQAPGQGLEWMGRIIPILGIANYAQKFQGRFTISRDDSKNSLYLQMNSLKTEDTAVYYCAREGDYFDYWGQGTLVTVSS
B8: TPP-24743 (antibody, V domains shown)
VH: B7 VH with N35S
B9: TPP-24750 (antibody, V domains shown)
VH: EVQLVESGGGLVQPGGSLRLSCAASGFTFSNYYISWVRQAPGKGLEWVGRIKSKTDGGTTDYAAPVKGRFTISRDDSKNSLYLQMNSLKTEDTAVYYCAREGDYFDYWGQGTLVTVSS
B10: TPP-24766 (antibody, V domains shown)
VH: B9 VH with Y32A, I34M
B11: hAPC (enzyme)
chain: T1 chain

Changes are numbered by the printed parent chain.

The first assay concerns the target T1, plasma-derived human activated protein …. Nature of the assay: SPR. Background: Surface plasmon resonance follows binding to a sensor surface in real time, without labels.
The term Kd denotes the free concentration of one partner at which half of the binding sites on the other are occupied at equilibrium, for simple one-to-one binding. On to B1, for which binding was put at a Kd of 76.4 nM.
Molecule B2 returned a Kd of 12.5 nM.
Still for that read-out and setting: to B3 belongs 31.4 nM; to B4, 60.5 nM; to B5, 44.8 nM.
On the same count and under the same terms, to B6 belongs 22.8 nM; to B7, 0.737 nM.
On to B8, for which the Kd was found to be 0.174 nM.
On the same count and under the same terms, to B9 belongs 13200 nM; to B10, 29700 nM.

The target is the same in another assay. Kind of assay: SPR. This is another data set of the same source.
B5 gave a Kd of 44.8 nM.

Another assay addresses TPP-29862. Kind of assay: SPR; head prints nM; kd/ka gives M.
On to B11, for which the Kd came out at 11 nM.

For the next assay, the target named is T1, plasma-derived human activated protein …. Nature of the assay: SPR. This is another data set of the same source.
B5 had a Kd of 18.7 nM.
